Experimental data published in patent US20040048327A1 (GEORGIA TECH RESEARCH, published 2004).
Numbered stars: 1 amine (or outer) side, 2 acyl side, 3 side chain; on linkers, the order of the positions; unused ones are H or OH. Square brackets hold non-standard residues; d marks the D form. * marks the point of attachment. AAsn = aza-asparagine, NC(=O)CN(N[*:1])C(=O)[*:2]; AAsp = aza-Asp, O=C(N(CC(=O)[*:3])N[*:1])[*:2]; azaAsp = O=C(N(CC(=O)[*:3])N[*:1])[*:2]; PhPr = N-terminal cap as named (PhPr); azaAsn = NC(=O)CN(N[*:1])C(=O)[*:2]; (S,S)‑EP = not defined here; trans‑EP = not defined here; Cbz = O=C(OCc1ccccc1)*

Key:
Assay in all cases: cell-based or functional assay
porcine pepsin = porcine pepsin (porcine, UniProt P00791 60-385)
Chain of porcine pepsin (P00791 60-385 limits assumed): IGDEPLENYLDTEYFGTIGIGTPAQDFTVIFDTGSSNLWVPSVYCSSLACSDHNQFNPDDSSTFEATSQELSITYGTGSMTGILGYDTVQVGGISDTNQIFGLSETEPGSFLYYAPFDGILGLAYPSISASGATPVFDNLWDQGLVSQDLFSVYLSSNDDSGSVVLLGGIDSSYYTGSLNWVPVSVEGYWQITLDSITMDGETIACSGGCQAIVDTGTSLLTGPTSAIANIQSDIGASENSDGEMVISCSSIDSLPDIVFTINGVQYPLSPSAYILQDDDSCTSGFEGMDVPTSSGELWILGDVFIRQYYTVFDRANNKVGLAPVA

[1] = molecular target: secreted aspartic proteinase 2 (SAP-2) from Candida albicans (Candida albicans)
human cathepsin D = human cathepsin D (human, UniProt P07339 65-412)
Chain of human cathepsin D (P07339 65-412 limits assumed): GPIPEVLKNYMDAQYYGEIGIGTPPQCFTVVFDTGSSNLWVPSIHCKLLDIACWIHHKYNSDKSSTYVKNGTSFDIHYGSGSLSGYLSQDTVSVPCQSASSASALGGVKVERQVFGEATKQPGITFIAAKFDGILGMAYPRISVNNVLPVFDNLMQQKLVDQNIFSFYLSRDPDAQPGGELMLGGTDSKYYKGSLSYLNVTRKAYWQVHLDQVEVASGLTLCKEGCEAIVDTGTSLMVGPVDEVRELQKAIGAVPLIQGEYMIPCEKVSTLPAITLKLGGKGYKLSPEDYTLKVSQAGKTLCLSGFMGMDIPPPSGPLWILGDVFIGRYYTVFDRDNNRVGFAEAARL

HIV-1 protease = HIV-1 protease (HIV-1)
[2] = molecular target: plasmepsin 2 (from P. falciparum) (P. falciparum, UniProt P46925 125-453, limits assumed)
Chain of plasmepsin 2 (from P. falciparum) (P46925 125-453 limits assumed): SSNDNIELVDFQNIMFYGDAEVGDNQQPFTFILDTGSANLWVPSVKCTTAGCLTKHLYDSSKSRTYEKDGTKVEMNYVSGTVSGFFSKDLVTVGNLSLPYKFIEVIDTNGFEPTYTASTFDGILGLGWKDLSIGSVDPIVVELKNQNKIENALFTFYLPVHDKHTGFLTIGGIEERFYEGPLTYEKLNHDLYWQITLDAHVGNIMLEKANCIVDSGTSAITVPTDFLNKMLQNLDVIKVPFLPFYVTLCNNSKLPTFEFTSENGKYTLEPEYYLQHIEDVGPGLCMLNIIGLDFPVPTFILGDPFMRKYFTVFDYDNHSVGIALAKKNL

[3] = molecular target: T1, schistosome legumain SmAE (Schistosoma mansoni asparaginyl endopeptidase) (Schistosoma mansoni, UniProt P09841 32-291)
T1 sequence (looked up): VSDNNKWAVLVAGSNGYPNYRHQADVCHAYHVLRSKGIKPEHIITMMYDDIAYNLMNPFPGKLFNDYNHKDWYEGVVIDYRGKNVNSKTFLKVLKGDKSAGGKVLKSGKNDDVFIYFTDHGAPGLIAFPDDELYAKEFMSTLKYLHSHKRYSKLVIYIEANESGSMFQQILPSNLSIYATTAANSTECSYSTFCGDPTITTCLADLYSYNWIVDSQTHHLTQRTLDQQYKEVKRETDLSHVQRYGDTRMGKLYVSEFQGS

caspase-3 = molecular target: T2, caspase-3 (UniProt P42574 29-277, limits assumed)
T2 sequence (looked up): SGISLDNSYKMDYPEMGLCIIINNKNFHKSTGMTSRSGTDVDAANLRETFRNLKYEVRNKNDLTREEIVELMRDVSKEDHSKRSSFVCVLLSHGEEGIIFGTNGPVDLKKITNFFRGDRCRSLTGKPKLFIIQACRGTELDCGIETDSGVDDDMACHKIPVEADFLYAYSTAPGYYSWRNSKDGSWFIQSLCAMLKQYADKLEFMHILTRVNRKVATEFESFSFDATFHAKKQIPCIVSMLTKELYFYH

caspase-6 = molecular target: T3, caspase-6 (UniProt P55212 24-293, limits assumed)
T3 sequence (looked up): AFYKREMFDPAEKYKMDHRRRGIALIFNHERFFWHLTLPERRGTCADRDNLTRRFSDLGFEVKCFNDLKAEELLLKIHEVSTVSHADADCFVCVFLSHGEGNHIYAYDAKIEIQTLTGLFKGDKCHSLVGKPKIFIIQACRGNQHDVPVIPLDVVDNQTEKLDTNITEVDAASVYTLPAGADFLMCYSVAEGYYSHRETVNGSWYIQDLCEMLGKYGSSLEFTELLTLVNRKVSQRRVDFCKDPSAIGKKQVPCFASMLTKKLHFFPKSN

[4] = molecular target: T4, autolytically stable caspase-1 variant (D381 E) (UniProt P29466 120-404, limits assumed)
T4 sequence (looked up): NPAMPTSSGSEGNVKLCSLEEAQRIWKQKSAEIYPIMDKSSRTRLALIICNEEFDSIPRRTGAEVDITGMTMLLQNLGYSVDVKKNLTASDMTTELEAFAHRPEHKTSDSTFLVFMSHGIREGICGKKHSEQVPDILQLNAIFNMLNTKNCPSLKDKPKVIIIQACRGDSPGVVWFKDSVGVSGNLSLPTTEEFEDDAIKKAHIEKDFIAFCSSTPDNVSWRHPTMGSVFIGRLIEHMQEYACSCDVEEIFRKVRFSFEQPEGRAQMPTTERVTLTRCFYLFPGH

Cbz-Ala-Ala-[azaAsn]-{(2S,3S)‑EP‑COOEt} [Cbz-Ala-Ala-AAsn-(2S, 3S)-EP-COOEt]
inhibition of substrate hydrolysis (porcine pepsin): < 20 % inhibition | inhibition of substrate hydrolysis [1]: < 20 % inhibition | inhibition of substrate hydrolysis (human cathepsin D): < 20 % inhibition | inhibition of substrate hydrolysis (HIV-1 protease): < 20 % inhibition | inhibition of substrate hydrolysis [2]: < 20 % inhibition | IC50 [3]: 53 nM

Cbz-Ala-Ala-[AAsn]-{(S,S)‑EP-CON(CH3)CH2Ph} (reading uncertain; also: printed as Cbz-Ala-Ala-AAsn-(S, S)-EP-CON(CH3)CH2Ph) [Cbz-Ala-Ala-AAsn-(S, S)-EP-CON(CH3)CH2Ph]
IC50 [3]: 63 nM

Cbz-Ala-Ala-[AAsn]-{trans‑EP-CH2CH2Ph} (reading uncertain; also: printed as Cbz-Ala-Ala-AAsn-(trans)-EP-CH2CH2Ph) [Cbz-Ala-Ala-AAsn-(trans)-EP-CH2CH2Ph]
IC50 [3]: 70 nM

PhPr-Val-Ala-[AAsp]-{(2S,3S)‑EP‑CON(CH3)CH2Ph} [PhPr-Val-Ala-AAsp-(2S,3S)-EP-CON(CH3)CH2Ph]
k2 (caspase-3): 1950 M⁻¹ s⁻¹ | k2 (caspase-6): 136 M⁻¹ s⁻¹

Cbz-Ala-Ala-[AAsn]-{trans‑EP-Ph‑4‑Cl} (reading uncertain; also: printed as Cbz-Ala-Ala-AAsn-(trans)-EP-Ph-4-Cl) [Cbz-Ala-Ala-AAsn-(trans)-EP-Ph-4-Cl]
IC50 [3]: 90 nM

Cbz-IET[azaAsp]-{(2S,3S)‑EP‑CON(CH3)CH2Ph} [Cbz-Ile-Glu-Thr-AAsp-(2S,3S)-EP-CON(CH3)CH2Ph]
k2 (caspase-3): 4780 M⁻¹ s⁻¹ | k2 (caspase-6): 47700 M⁻¹ s⁻¹

PhPr-Val-Ala-[AAsp]-{(2S,3S)‑EP‑CON(CH2Ph)2} [PhPr-Val-Ala-AAsp-(2S,3S)-EP-CON(CH2Ph)2]
k2 [4]: 101000 M⁻¹ s⁻¹ | k2 (caspase-3): 830 M⁻¹ s⁻¹ | k2 (caspase-6): 145 M⁻¹ s⁻¹

PhPr-Val-Ala-[AAsp]-{(2S,3S)‑EP‑CON(CH2CH2CH2CH3)2} [PhPr-Val-Ala-AAsp-(2S,3S)-EP-CON(CH2CH2CH2CH3)2]
k2 [4]: 26200 M⁻¹ s⁻¹ | k2 (caspase-3): 520 M⁻¹ s⁻¹ | k2 (caspase-6): 53 M⁻¹ s⁻¹

Cbz-IET[azaAsp]-{(2S,3S)‑EP‑CON(CH2Ph)2} [Cbz-Ile-Glu-Thr-AAsp-(2S,3S)-EP-CON(CH2Ph)2]
k2 (caspase-3): 3550 M⁻¹ s⁻¹ | k2 (caspase-6): 32000 M⁻¹ s⁻¹
